From patent US20190248888A1, “METHODS OF LOWERING BLOOD GLUCOSE LEVELS” (Regeneron Pharmaceuticals, Inc., priority 2016, published 2019)

System: Slc38a5 in α-cells
Assay: Slc38a5 RNA in situ hybridization and immunofluorescence of pancreas sections
Assay type: in vivo, mouse
Excerpt: Formalin fixed mouse pancreatic sections were permeabilized and hybridized with custom made mRNA probes to glucagon and mouse Slc38a5 (ACD BIO). Following probe hybridization and amplification, Slc38a5 mRNA was detected using red chromogen and glucagon mRNA with green chromogen (RNAscope 2.5 HD Duplex Reagent Kit) and images were obtained using a Zeiss Axio Scan.Z1 slide scanner (Zeiss).

B1: α-GCGR: potent monoclonal GCGR blocking antibody, HCVR/LCVR SEQ ID NOs: 86/88 (antibody, V domains shown)
VH: EVQLVESGGGLVQPGGSLRLSCAASGFTFSNYLMNWVRQAPGKGLEWLANIQEDGIEKYYVDSVKGRFTISRDNAKNSLYLQMNSLRAEDTAVYYCAREPSHYDILTGYDYYYGMDVWGQGTTVTVS
VL: DIQMTQSPSSLSASVGDRVTITCRASQGIRNDLGWYQQKPGKAPKRLIYAASSLQSGVPSRFSGSGSGTEFILTVSSLQPEDFATYYCLQYNSNPFTFGPGTKVDIK
- Slc38a5 immunostaining of pancreas sections (mice, 3 mg/kg, 21 days): detected in a subset of glucagon-positive cells
- Slc38a5 mRNA expression in α-cells (RNA ISH) (pancreas sections of treated mice): upregulation
